The source of these data is patent US20240327538A1 (AMUNIX PHARMACEUTICALS, published 2024).

Assay [1] deals with T1, human PSMA-Fc (human, UniProt Q04609 44-750, limits assumed).
T1 construct: also called Human PSMA-Fc fusions; not shown: Fc part
As to the kind of experiment: linker length / domain swap comparison.

For assay [2], the target named is T2, human PSMA on PSMA-transfected CHO cells (human, UniProt Q04609 1-750).
T2 construct: whole, on cells; also called Hu PSMA CHO
As to the kind of experiment: binding to PSMA-transfected CHO cells, labeled secondary antibody to the anti-CD3 scFv. The protocol:
(§1) Surface binding was detected with a labeled secondary antibody specific for the anti-CD3 scFv.
(§2) The binding affinities to both human and cyno PSMA and human and cyno CD3 epsilon were determined.

Assay [3] has as its target T3, cyno PSMA on PSMA-transfected CHO cells (cynomolgus monkey, UniProt A0A2K5VNZ0 1-750).
T3 construct: whole, on cells; also called Cyno PSMA CHO
The description is as above. The protocol: as §1, §2

The target in assay [4] is T1, human PSMA-Fc. Put plainly: Octet. For orientation: BLI is a label-free optical method that tracks binding on a fibre tip over time.
Assay [5] deals with T1, human PSMA-Fc. Put plainly: Octet, human PSMA-Fc. As to the method: Binding affinity of select PSMA PTE variants was tested by Octet.
Assay [6] has as its target T4, human CD3 epsilon (human, UniProt P07766 23-126, limits assumed).
T4 construct: also called huCD3e
As to the kind of experiment: Octet.

The target of assay [7] is T5, cynomolgus monkey CD3 epsilon (cynomolgus monkey, UniProt Q95LI5 22-117, limits assumed).
T5 construct: also called cyCD3e
T5 sequence (looked up): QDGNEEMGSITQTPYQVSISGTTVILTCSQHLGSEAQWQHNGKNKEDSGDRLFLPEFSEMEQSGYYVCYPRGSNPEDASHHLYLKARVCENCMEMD
As to the kind of experiment: Octet.

Assay [8] addresses T6, human PSMA (human, UniProt Q04609 44-750, limits assumed).
T6 construct: also called huPSMA
As to the kind of experiment: Octet.

In assay [9] the target is T7, cynomolgus monkey PSMA (cynomolgus monkey, UniProt A0A2K5VNZ0 44-750).
T7 construct: also called cyPSMA; Cyno PSMA
Put plainly: Octet.

Assay [10] addresses T4, human CD3 epsilon. Put plainly: Biacore. Background: In SPR one partner is held on a chip, and binding of the other changes the refractive index at the surface.
Assay [11] concerns the target T5, cynomolgus monkey CD3 epsilon. As to the kind of experiment: Biacore.
For assay [12], the target named is T6, human PSMA. Put plainly: Biacore.
The target in assay [13] is T7, cynomolgus monkey PSMA. As to the kind of experiment: Biacore.
Assay [14] concerns the target T6, human PSMA. As to the kind of experiment: Pool 2 binding screen.
For assay [15], the target named is T1, human PSMA-Fc. As to the kind of experiment: Octet, human PSMA-Fc, 300-3.6 nM PSMA-uTCE.
The target of assay [16] is T8, PSMA on human prostate cancer cell lines (LNCaP, 22Rv1) (human, UniProt Q04609 1-750). As to the kind of experiment: cell-based or functional assay.
T8 sequence (Q04609 whole entry): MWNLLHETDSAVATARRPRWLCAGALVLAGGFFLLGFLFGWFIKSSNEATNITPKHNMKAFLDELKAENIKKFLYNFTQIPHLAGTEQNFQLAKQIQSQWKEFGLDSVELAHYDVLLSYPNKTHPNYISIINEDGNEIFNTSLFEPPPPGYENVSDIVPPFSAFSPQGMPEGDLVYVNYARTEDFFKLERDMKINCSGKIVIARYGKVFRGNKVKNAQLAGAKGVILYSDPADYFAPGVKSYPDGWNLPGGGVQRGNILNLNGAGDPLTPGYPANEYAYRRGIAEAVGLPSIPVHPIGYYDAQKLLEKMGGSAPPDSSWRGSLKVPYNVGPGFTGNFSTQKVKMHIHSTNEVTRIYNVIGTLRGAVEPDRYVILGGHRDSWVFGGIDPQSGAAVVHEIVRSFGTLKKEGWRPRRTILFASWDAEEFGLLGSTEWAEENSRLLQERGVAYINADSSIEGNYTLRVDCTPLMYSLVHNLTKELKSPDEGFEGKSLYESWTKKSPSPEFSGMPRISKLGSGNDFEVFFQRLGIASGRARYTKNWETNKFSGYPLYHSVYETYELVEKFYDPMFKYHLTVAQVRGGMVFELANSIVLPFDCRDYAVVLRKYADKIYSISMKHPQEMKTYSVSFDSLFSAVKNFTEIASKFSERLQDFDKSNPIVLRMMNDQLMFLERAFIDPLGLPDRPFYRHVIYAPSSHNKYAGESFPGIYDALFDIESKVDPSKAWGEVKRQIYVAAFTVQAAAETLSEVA
The target of a further assay is T9, Human CD3 (human, UniProt P07766 23-126).
T9 construct: not shown: A CD3 delta partner cannot be excluded
T9 sequence (P07766 23-126 limits assumed): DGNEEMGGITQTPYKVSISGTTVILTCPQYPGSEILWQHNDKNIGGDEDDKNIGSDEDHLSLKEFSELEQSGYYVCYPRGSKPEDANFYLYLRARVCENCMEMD
As to the kind of experiment: BLI or SPR.

A further assay addresses T10, Cyno CD3 (cynomolgus monkey, UniProt Q95LI5 22-117).
T10 construct: also called cynomolgus monkey CD3; not shown: A CD3 delta partner cannot be excluded
T10 sequence: T5 sequence (looked up)
Put plainly: BLI or SPR.

Assay [17] has as its target T6, human PSMA. Put plainly: BLI or SPR. The text has this:
(§3) The values are reported below in Table 19 for PSMA and Table 20 for CD3.

Assay [18] concerns the target T7, cynomolgus monkey PSMA. As to the kind of experiment: BLI or SPR.
Source text: as §3

Assay [19] has as its target T8, PSMA on human prostate cancer cell …. As to the kind of experiment: cell-based or functional assay. The source holds these as a separate data set.

T1 sequence (Q04609 44-750 limits assumed): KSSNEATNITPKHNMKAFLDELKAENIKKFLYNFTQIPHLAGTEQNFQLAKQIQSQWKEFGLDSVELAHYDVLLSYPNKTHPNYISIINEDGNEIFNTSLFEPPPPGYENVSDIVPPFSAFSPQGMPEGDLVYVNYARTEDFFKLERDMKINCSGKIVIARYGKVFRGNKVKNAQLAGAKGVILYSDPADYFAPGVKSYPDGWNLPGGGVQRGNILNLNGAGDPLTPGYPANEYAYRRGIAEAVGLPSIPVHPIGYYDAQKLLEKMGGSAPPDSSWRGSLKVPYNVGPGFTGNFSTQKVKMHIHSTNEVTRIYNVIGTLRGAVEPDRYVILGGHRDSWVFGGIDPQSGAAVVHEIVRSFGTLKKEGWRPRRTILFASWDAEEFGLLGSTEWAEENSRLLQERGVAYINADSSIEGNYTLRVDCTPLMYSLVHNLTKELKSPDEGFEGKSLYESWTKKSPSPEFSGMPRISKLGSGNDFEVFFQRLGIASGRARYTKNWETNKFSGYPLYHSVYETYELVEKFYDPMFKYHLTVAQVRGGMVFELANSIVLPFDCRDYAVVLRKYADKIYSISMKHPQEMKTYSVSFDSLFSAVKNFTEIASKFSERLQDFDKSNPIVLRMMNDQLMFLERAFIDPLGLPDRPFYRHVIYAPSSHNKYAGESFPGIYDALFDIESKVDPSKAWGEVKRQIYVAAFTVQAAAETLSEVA
T6 sequence (Q04609 44-750 limits assumed): as above
T4 sequence (P07766 23-126 limits assumed): as the sequence (P07766 23-126 limits assumed) above
T2 sequence (Q04609 whole entry): as the sequence (Q04609 whole entry) above

B1: uTCE from AC3092 (bispecific antibody)
chain: LTGPATSGSETPGTQVQLVESGGGVVQPGRSLRLSCAASGRTFGIYVMGWVRQAPGKEREFVAAISWSGSNRLVSDSVKGRFTISRDNSKNTLYLQMNSLRAEDTAVYYCAASNRLYGRTWYDFNESDYWGQGTQVTVSSGGGGSGGGSELVVTQEPSLTVSPGGTVTLTCRSSNGAVTSSNYANWVQQKPGQAPRGLIGGTNKRAPGTPARFSGSLLGGKAALTLSGVQPEDEAVYYCALWYPNLWVFGGGTKLTVLGATPPETGAETESPGETTGGSAESEPPGEGEVQLLESGGGIVQPGGSLKLSCAASGFTFNTYAMNWVRQAPGKGLEWVARIRSKYNNYATYYADSVKDRFTISRDDSKNTVYLQMNNLKTEDTAVYYCVRHENFGNSYVSWFAHWGQGTLVTVSSGTAEAASASGEAGRSANHTPAG
notes: unmasked TCE released from this paTCE; also called AMX-500-P1; PSMA.5-CD3.23 uTCE
Regarding B1, the Kd – broadly, the constant that tells how readily two partners part at equilibrium – with human PSMA-Fc [1] was 3.9 nM; with human PSMA-Fc [4] it was 3.9 nM; in the assay with human PSMA-Fc [5] it was 3.9 nM; with human CD3 epsilon [6], 71.9 nM; in assay [7], 64.6 nM; with human PSMA [8], 4.5 nM. This molecule also registered a Kd with cynomolgus monkey PSMA [9] of 41.1 nM. The koff (usually the first-order rate constant of dissociation) with human PSMA-Fc [1] turned out to be 0.00027 s⁻¹; in the assay with human PSMA-Fc [5], 0.000273 s⁻¹. The kon – broadly, the rate constant with which the complex forms – in the assay with human PSMA-Fc [1] was determined as 72000 M⁻¹ s⁻¹; with human PSMA-Fc [5], 72500 M⁻¹ s⁻¹. In addition, the EC50 (usually the concentration needed to bring the measured effect to its halfway point) in [2] came to 9.06 nM; in [3] it was 28.8 nM.

B2: uTCE from AC3928 (bispecific antibody)
chain: LTGPGTSESATPESQVQLVESGGGVVQPGRSLRLSCAASGRTFGIYVWGWFRQAPGKEREFVGAMSWSGSNRKVSDSVKGRFTISRDNSKNTLYLQMNSLRAEDTAVYYCAASNKEYGRTWYDFNESDYWGQGTQVTVSSGGGGSGGGSELVVTQEPSLTVSPGGTVTLTCRSSNGAVTSSNYANWVQQKPGQAPRGLIGGTNKRAPGTPARFSGSLLGGKAALTLSGVQPEDEAVYYCALWYPNLWVFGGGTKLTVLSESATPESGPGTSPGATPESGPGTSESATPEVQLLESGGGIVQPGGSLKLSCAASGFTFNTYAMNWVRQAPGKGLEWVARIRSKYNNYATYYADSVKDRFTISRDDSKNTVYLQMNNLKTEDTAVYYCVRHENFGNSYVSWFAHWGQGTLVTVSSGTATPESGPGEAGRSASHTPAG
notes: unmasked TCE released from this paTCE; also called PSMA.350-CD3.23 uTCE; AMX500-P6
Regarding B2, the Kd amounted to 43 nM in the assay with human CD3 epsilon [6]; 44.9 nM in [7]; 27.3 nM in the assay with human CD3 epsilon [10]; 26.6 nM in assay [11]; 13.2 nM with human PSMA [8]; 198 nM with cynomolgus monkey PSMA [9]. Further, the figures for the dissociation constant Kd with human PSMA [12] and with cynomolgus monkey PSMA [13] were 19 nM and 354 nM, respectively.

B3: uTCE from AC3934 (bispecific antibody)
chain: LTGPGTSESATPESQVQLVESGGGVVQPGRSLRLSCAASGRTFGIYVWGWVRQAPGKEREFVGAISWSGSNRKVSDSVKGRFTISRDNSKNTLYLQMNSLRAEDTAVYYCAASNKLYGRTWYDFNESDYWGQGTQVTVSSGGGGSGGGSELVVTQEPSLTVSPGGTVTLTCRSSNGAVTSSNYANWVQQKPGQAPRGLIGGTNKRAPGTPARFSGSLLGGKAALTLSGVQPEDEAVYYCALWYPNLWVFGGGTKLTVLSESATPESGPGTSPGATPESGPGTSESATPEVQLVESGGGIVQPGGSLRLSCAASGFTFSTYAMNWVRQAPGKGLEWVGRIRTKRNNYATYYADSVKGRFTISRDDSKNTVYLQMNSLKTEDTAVYYCVRHENFGNSYVSWFAHWGQGTLVTVSSGTATPESGPGEAGRSASHTPAG
notes: unmasked TCE released from this paTCE; also called PSMA.262-CD3.228 uTCE
Regarding B3, the Kd in the assay with human CD3 epsilon [6] turned out to be 26.6 nM; in [7] it was 33.7 nM; with human CD3 epsilon [10], 9.83 nM; in assay [11] it was 10.4 nM; in the assay with human PSMA [8], 1.6 nM; with cynomolgus monkey PSMA [9] it was 13.1 nM. For the same molecule, the Kd with human PSMA [12] amounted to 0.5 nM; with cynomolgus monkey PSMA [13], 13 nM.

B4: uTCE of AC3329 (bispecific antibody)
chain: LTGPRAPPEPEFARATSGSETPGTQVQLVESGGGVVQPGRSLRLSCAASGRTFGIYVMGWVRQAPGKEREFVAAISWSGSNRKVSDSVKGRFTISRDNSKNTLYLQMNSLRAEDTAVYYCAASNRLYGRTWYDFNESDYWGQGTQVTVSSGGGGSGGGSELVVTQEPSLTVSPGGTVTLTCRSSNGAVTSSNYANWVQQKPGQAPRGLIGGTNKRAPGTPARFSGSLLGGKAALTLSGVQPEDEAVYYCALWYPNLWVFGGGTKLTVLGATPPETGAETESPGETTGGSAESEPPGEGEVQLLESGGGIVQPGGSLKLSCAASGFTFNTYAMNWVRQAPGKGLEWVARIRSKYNNYATYYADSVKDRFTISRDDSKNTVYLQMNNLKTEDTAVYYCVRHENFGNSYVSWFAHWGQGTLVTVSSGTAEAASASGEAGRSANHTPAG
notes: unmasked TCE of this paTCE; also called PSMA.119; L59K
Consider B4, for which the Kd with human PSMA [14] was found to be 4.1 nM. Moreover, in the assay with human PSMA-Fc [4], the Kd was 3.2 nM. For the same molecule, in the assay with human PSMA-Fc [5], binding was put at a Kd of 3.2 nM, the koff is 0.000248 s⁻¹ and the kon stood at 80000 M⁻¹ s⁻¹.

B5: uTCE of AC3265 (bispecific antibody, V domains shown)
VH: QVQLVESGGGVVQPGRSLRLSCAASGRTFGIYVMGWYRQAPGKEREFVAAISWSGSNRLVSDSVKGRFTISRDNSKNTLYLQMNSLRAEDTAVYYCAASNRLYGRTWYDFNESDYWGQGTQVTVSS
notes: VHH in uTCE with CD3.23 scFv (VL-VH), 9-residue linker; also called PSMA.55; V37Y
B5 displayed a Kd in the assay with human PSMA-Fc [4] of 2.7 nM. In the assay with human PSMA-Fc [5], this molecule displayed a koff of 0.00028 s⁻¹ and a kon of 104000 M⁻¹ s⁻¹. The affinity in the assay with human PSMA-Fc [15], expressed as Kd, was 2.7 nM.

B6: AMX-500(uTCE) (bispecific antibody)
chain: GTSESATPESQVQLVESGGGVVQPGRSLRLSCAASGRTFGIYVWGWFRQAPGKEREFVGAMSWSGSNRKVSDSVKGRFTISRDNSKNTLYLQMNSLRAEDTAVYYCAASNKEYGRTWYDFNESDYWGQGTQVTVSSGGGGSGGGSELVVTQEPSLTVSPGGTVTLTCRSSNGAVTSSNYANWVQQKPGQAPRGLIGGTNKRAPGTPARFSGSLLGGKAALTLSGVQPEDEAVYYCALWYPNLWVFGGGTKLTVLSESATPESGPGTSPGATPESGPGTSESATPEVQLVESGGGIVQPGGSLRLSCAASGFTFSTYAMNWVRQAPGKGLEWVGRIRTKRNNYATYYADSVKGRFTISRDDSKNTVYLQMNSLKTEDTAVYYCVRHENFGNSYVSWFAHWGQGTLVTVSSGTATPESGPG
notes: also called uTCE from AC3896; fully unmasked AMX-500; not shown: remnant of cleaved N-terminal release segment RSR-3213; remnant of cleaved C-terminal release segment RSR-3213
Consider B6, for which the “in vitro cytotoxicity IC50, LNCaP PSMA-high cells with PBMC, donor 1” value in [16] turned out to be 0.024 nM. In addition, the “in vitro cytotoxicity IC50, LNCaP PSMA-high cells with PBMC, donor 2” value in assay [16] is 0.015 nM. In addition, the “in vitro cytotoxicity IC50, LNCaP PSMA-high cells with PBMC, donor 3” value in [16] amounted to 0.016 nM. For the same molecule, the “in vitro cytotoxicity IC50, LNCaP PSMA-high cells with PBMC, donor 5” value in assay [16] stood at 0.032 nM. Moreover, the EC50 in [2] was 17.4 nM. Besides, the Kd in the assay with Human CD3 was 28 nM; with Cyno CD3, 26 nM; in the assay with human CD3 epsilon [6], 33.2 nM; in [7] it was 38.8 nM; with human CD3 epsilon [10], 12.8 nM; in assay [11], 13.7 nM. Also, the Kd in the assay with human PSMA [8] worked out at 12.1 nM; in the assay with cynomolgus monkey PSMA [9], 201 nM; in the assay with human PSMA [17], 44 nM; with cynomolgus monkey PSMA [18], 410 nM; with human PSMA [12], 11.7 nM; with cynomolgus monkey PSMA [13], 230 nM. For the same molecule, the koff was 0.1 s⁻¹ in the assay with Human CD3, 0.1 s⁻¹ with Cyno CD3, 0.012 s⁻¹ with human PSMA [17] and 0.043 s⁻¹ with cynomolgus monkey PSMA [18]. The kon with Human CD3 was found to be 4e+06 M⁻¹ s⁻¹; in the assay with Cyno CD3, 5e+06 M⁻¹ s⁻¹; with human PSMA [17] it was 270000 M⁻¹ s⁻¹; in the assay with cynomolgus monkey PSMA [18], 100000 M⁻¹ s⁻¹. In assay [19], the “in vitro cytotoxicity IC50, 22Rv1 cells with PBMC, donor 1” value was 0.691 nM. For the same molecule, the “in vitro cytotoxicity IC50, 22Rv1 cells with PBMC, donor 2” value in assay [19] amounted to 1.34 nM. For the same molecule, in [19], the “in vitro cytotoxicity IC50, 22Rv1 cells with PBMC, donor 3” value was 1.3 nM.
